Data as given in the DeepSol protein solubility set.

assay: soluble on expression in E. coli; label from the status in PepcDB or PDB records

Sequence	soluble on expression in E. coli
MRDEISSRIRRLPAGMSGGRAPDFALAVYGGAFDPPHPGHESVIRRALLCAERVALVPSHRHAFGKRMGDFELRCRWLARLARRIDPRRVYCEPIEAGLMPDRPAVYSIDLLEALAARSGLASARIALLIGADNEAELPRFERAAELCWRFGRLVAEERLPLHSSMIRQRLREGLAVPEAWCLPEVKDELHCYGGERQAV	not soluble
MGSDKIHHHHHHMRNSNLSKKPFIITIASTKGGSAKSTNAANIGAFCADHGLKTLLIDTDTQPTLSAYFALNYVAPGGIHEFLTYQDVEPSHIISKTTLSNLDLIQSNDPTNNVSQMLRNAPDGAIRFSFLLKKLKGYDVIIVDTRGTRDITVDMSVLAADLLFCPILPHILSAKEFIRGTMGMYQELQTFEAFGFSLPPLKAVPNCVDHTNDVKFVLGHLKQLFEQNLSADKTLLDFHIPNKVAYREAATYSLPVYRHSKAEYVVIQALCMHLLPQFAHQFEQGLSGHLGGHNV	not soluble
NKDMNFTIRANYTFSQNVIDYFEENKLPYDYLSVTGKPFNILRGYISEGLFASKEEINTSPDQSGFGTIRPGDIKYRDVNGDGIINEDDKVPLSYSNQLPRMMYGFGGDFQWKDLTVSILFKGSAKVDYYRAGLGNDYGWIPFYNGDLGNVIKLANNPKNRWTPAWYSGTTATENPNAEFPRLSYGKNTNNSQLSSFWRRNGSFLRLQEVSLRYSLKHLPWIKSVGLSSVDLEFVANNLFTIDKVKYFDPEQASANGAVYPIPATYAFQVYLRF	not soluble
MALDRLREALGEALFGQEEVIEALLAVLLARGHALLEGMPGLGKTLLAESLARASGLAYKRIQFTPDLLPQDLTGSEVYREGRFVFVPGPIFAQVVLADEINRAPPKVQSALLEAMQERAVTAGGVRHPLPEPFFVIATQNPLELEGTYPLPEAQLDRFTAKIPFRPPRREVWLRILTEEPKAPEPVEVDLLKAQEEAKEVRVAKEALEAITHVAFLTQEDQRLRMGLSPRGAKAWLSLARALAYLRGKPFVDWKELKDAAFLALPHRLFLTEEALYAGESAEGVLKEALRKGGIPLEHHHHHH	soluble
MTQTPDREKALELAVAQIEKSYGKGSVMRLGDEARQPISVIPTGSIALDVALGIGGLPRGRVIEIYGPESSGKTTVALHAVANAQAAGGVAAFIDAEHALDPDYAKKLGVDTDSLLVSQPDTGEQALEIADMLIRSGALDIVVIDSVAALVPRAELEGEMGDSHVGLQARLMSQALRKMTGALNNSGTTAIFINQLRDKIGVMFGSPETTTGGKALKFYASVRMDVRRVETLKDGTNAVGNRTRVKVVKNKCLAPFKQAEFDILYGKGISREGSLIDMGVDQGLIRKSGAWFTYEGEQLGQGKENARNFLVENADVADEIEKKIKEKLGIGAVVTDDPSNDGVLPAPVDF	soluble
MGSDKIHHHHHHMNTAAIYRQYQTYVRSDKSGWALDGCSDSALIAQAKQPGLHLKMCINRFDSGITLSRMRGGGTGAFPTEIHNFSHNCALFVMVSGQNRLQMGGREYRPSAGEIWLVRGELADVSETLLPDSGGMCALHLDFSLEKLRRWHDEGLLDERLFSPQTIGRFALQRLAQNAGTLTAAACPLLQRPFESDGFGLLADEADALELSARLLRFTFRRHDNGYRRRRIDEAADILNSEFARPLTIAEIARRVGLNECYLKRYFKAQTGETVAGRLRRLRLEHALALIESGSTIQAAMHFCGYRHAGRFNEAFRRHYGFLPSDVKKC	not soluble
MKAETTTGVEELLNELVGRAAGEVGLILFSLGIEGEFTDDQLSLELGIEINEIRKALFALYEIGLADYVRRRDDETGWMEYYWRINYDKALDVLKRELEKTAKKLREKIEAETSTIYYICPNMCVKVSYNDAMELNFTCPRCGAMLDYLDCSKAIEKIEEEVRRIEEILESLDKNSG	not soluble
MSLVPAFPHSTSPTTTVIAVPPALSLPVIETDFPRQLHPYWPRLQEKTRSWLLEKRLMPADKVEEYADGLCYTDLMAGYYIGAPDEVLQAIADYSAWFFVWDDRHDRDVIHRRATAWRQLRFQLHTALDSPRDHLHHRDPLVAGFADSMVRLYSFLGKKWNARFACHFHAVIEAYDREFHNRTRGIVPTVEEYLELRRLTFAHRIWTDLLEPSARHEIPAGVREHPGYRRAALLSQEFAAWYNDLCSLPKEIAGDEVHNLGISLIHHEGLTLEEAVTEVRRRVEECIAEFLVAEKEAVHLADGLADGTRAGHELSDAVKACVANMRNWFSTVYWFHHESGRYRVDSWDDRSTPPYVNNEAAGEGHHHHHH	soluble
GTVKVYLPNKQRTVVTVRDGMSVYDSLDKALKVRGLNQDCCVVYRLIKGRKTVTAWDTAIAPLDGEELIVEVL	soluble
MAARDPEATKARIFEAAVAEFARHGIAGARIDRIAAEARANKQLIYAYYGNKGELFASVLEKKMLDLAISVPVDPDDIEGWIDRLLDYHAAHPELLRLLFWEGMEYGTAELPHEAERQEHYARKVAAVRDGQERGVITDAIPAPDLLFLLVAMANWAVVVPQMKRILVGGGDAGTDGLRDSIKKAARRIVDR	not soluble
MSLKAEFLTPVVTIFDEEGNLDKEGNKKVYDHLIDGGVDGLVIMGSTGEFFNMSMDMQKELIDLVTSHVNKRVKVFIGTSRMCINESIELSNYAHNSGADGVMIISPYYFSLDDDSIELFYSEIAKNTEAEIYLYNYPDRTGYDLSPELTLRLARKHKNIVGYKDTVTLMGHTRDLINTMKIEFPEFKVYSGYDENFIHNLMSGGAGCIGGLSNLIPEVCSKWAEAYNNRDMEKVIEIQKYINKAMDFYLITNPFIPAMKKAMNIRGLQISDYMTAPFVKPNEKQVCEIKKLMNELNIEGHHHHHH	soluble
MSLRPGQVDNDVINLVAMLFEFILDDRHLHSVMKSLLGRLQIPILKVALTDKNFFNRGGHPARKLLNEMALAATGWTEKRPGQRDPLLDKISAVVNRILAEFSTDVSLFNELLDDFNQFSDLDQRRSDLVEQRLRDAEEGRARHEQATADTKELLHEAMDGRLLPEPVQDMLNGPWSHYLHWLALHESTDSEAWQRAKTLTEQLIWTIDPVPLTATTHELLQQAIPQVIEQLRGALEGVAWDGLSVEMVVRDLELVHLDVFQRLVIAPSEAAGNDHAQIDDSQEAPAVRADAVPSDTTNTSADVSHPAPALPVAADDPKEAVVARVPEPTRAQPVVAEEWLAKADGLRVGCWLELNRDGSQIRCKLAAFIRAVDKYIFVNRSGAKVAEYRRNELAEMMAQGHIEILDDGLIFDRALESIIDNLRTSRREGHHHHHH	soluble
SLSIDEIKQLIELIDESTLDEFELETKDSKILLKKHKTVVATAVQEAPIAVTPAQTAPVTPAAAPQVEASTAEDVNLEVITSPMVGTFYASASPEDANFVSVGSKVSAQSVVCIVEAMKLFNEITADIDGEIAEILVSSGELVEFGQPLFKVRKK	soluble
RPDPQEIEAQRKAAIEAARQDSIAKAEAELLAARTQGATPDSIKQAAGYNQYGLLAAATAGAEEQVELANGKIALKLSTKGGAIREVLLRDYKTHDGKPLYLFREGESDFNLPLRTVDNRLVDTRDLYFSPISRTDSSVVMRLAVDSASYLDLAYVLLPDDYRLRMTVSGQNLQSLFPANMTMQDLEWSQRIRRQEKSWKFENQYTSIYYKYSGDEVDRLSDSKQEDKKTLEEPLHWVSFKDKYFASVLVCDSYFENNKLAQKTAAAGSDYLKNCTMSATFPLDVRSGTKARFTFFFGPLKYNMLRAYDKGMKAEDNLDLDHLVYLGASIFRWINRYMIIPASTFLQQYFSN	not soluble
MAVNQDTLYVKGDRNVEVTKREVTLGDLVSMECSNRVILPHLKTMKVLKIPENGEKRYVISILKIIACIHEKYPGLEVQNLGETDLIVTYEMQKTPSK	soluble
MGSDKIHHHHHHMTHSTDITTLARWFAADFSNQQQAFDNPPLFAHIRVCMRPLPYQLLNGLSLYLEQAYDITLNQPYRVRVLKLVPSENHIEIENYIIDQEAEFYGASRDPQRLKNLKTEYIKKLPGCTFITKWTGKSFKGEVEPGKGCTVVREGKSTYLKSYFEINEHKFISHDTGYDPETDQQVWGAIAGPFEFVRWASFADEVI	not soluble
GPGSMEPKSVEEYSQQNYWIGRYEVEEQHDWFLSVRQPTIAALCDELLKVFQQRERLHSADGNVEGDQPALRVLHLGTGNSSLCMDLYEAVRERQLPFALHQVAMDYAPNVIERMQSKYSPDILPNAQWIVGDVRKLEEFREYGPFDAVIEKGTMDAIEADKNRPEMKGDVEAMLHGVDTLLKHAKGYGAFLQVTWVAPHLRLPYTKGDAFAWGDQVRYSLLGESDIYRLFVYTVRE	soluble
MRPIEEFVYVGNQVIVPDQASLMRCYYPIIGGEGYALYQYFVAFYDNGNHRHKFATILNHLNFGMQPLQESLAVLTAVDLLAFYHSPQGIYVVELKSPLSIEQFLKHAVYSSLLEQKIGEPAVDALKPTSLHGLQDLSKRFSDVFTDERLAQKSVSEIKPKNSFDLISFRNRMQADGLVFTDEKTDVPEIYKLSETYDMNWYDTYLLSKKTAVNHRIIVKRMQVQLEQAQAQKLGGDSALTETEKKILKAVKSGKPVDYLQSAKGPGGTVTNSEKKILTDLAQRGFMDEVINLMVAYSLGRTRSTNVNREYISKVANDFDFKKIVTAEQGLLALRSGYDKKSQRAKDDSKKKTNVPSWSDPDYDNQTNQADQAKLDEIRRRALAKLEKG	not soluble
GPGSMPPKNAVKRNQKSSKQRDNFDEAAIDALIMAIEGKAKKGTTKSQLKQKEDKSLSRANGQSYVLSEQMRNALLAQMQQPTAQEEQYVNVPVPLTGEEKGWQEVAPNRYIRYEQFGGSDAEMNFIVNLFTAELTEPYSSFTYQYFVFGWPDLCITAFGVESETKPDNSVVGEKVGAVVSRVTRKGAGMPLRGYVAMFAVVPKFRGYRLGSRLVSLTVELMRAKGCDEVYLETPTSNVRALGLYLNLGFAKTKYLPRYYLDHSDARASEAVAEGCHPKVCPRDCFHGWCGEGVAGTLRVCLE	soluble
MGSDKIHHHHHHMKSYVLTVSCKSTRGIVAAITGYLAEKGCYISDSSQFDDFQTGLFFMRLTFISQDGAKLEELREGFEPVIKRFEMMMEIRDSEERMKVLLMVSRFGHCLNDLLYRWKIGALPIDIVGVVSNHFDYQKVVVNHDIPFHHIKVTKENKPKAEAQLMDVVEQTGAELIVLARYMQVLSDALCKKMSGKIINIHHSFLPSFKGANPYKQAYERGVKLIGATAHYVTADLDEGPIIEQDIARITHAQSAEDYVSIGRDVESQVLARAVHAHIHHRCFINGNRVVVFPPSPGSYASERMG	not soluble
GPGSMEVYRRITERVRGALWAHHGRLMSERQFHRILAFVYNNKYEYQIRFDRMEVVGREWGGRVEVVTTPAGYLKRVRVNPCVEDLTLYQQQQLILSAYASACADGRKLMEQAEMNIYKQFLKDLKPIVMGIRDNPEFYTVPENSIETIGGVLQTGDSNNLCHTHRTIPAAKARQPTDEVRARQEWEQKWINSPRGQSWALTLRGKTYFTLHGPQYRPRGAPGAKKETLPLDIPAPYTAMDEKRLLKKNWMAYLDNKHVAEVMWTRVKIADREKRQRLLQETGRAWHRPINEEAINRW	not soluble
MASMTGGQQMGRGSPNMLRKRQMTVLDLHPGSGKTRKILPQIIKDAIQQRLRTAVLAPTRVVAAEMAEALRGLPVRYQTSAVQREHQGNEIVDVMCHATLTHRLMSPNRVPNYNLFVMDEAHFTDPASIAARGYIATKVELGEAAAIFMTATPPGTTDPFPDSNAPIHDLQDEIPDRAWSSGYEWITEYAGKTVWFVASVKMGNEIAMCLQRAGKKVIQLNRKSYDTEYPKCKNGDWDFVITTDISEMGANFGASRVIDCRKSVKPTILEEGEGRVILGNPSPITSASAAQRRGRVGRNPNQVGDEYHYGGATSEDDSNLAHWTEAKIMLDNIHMPNGLVAQLYGPEREKAFTMDGEYRLRGEEKKNFLELLRTADLPVWLAYKVASNGIQYTDRKWCFDGPRTNAILEDNIEVEIVTRMGERKILKPRWLDARVYADHQALKWFKDFAAGKRHHHHHH	soluble
